Assay results published in patent US20230331811A1 (CCOA THERAPEUTICS, published 2023).

Tests used:
[1] = target: T1, Recombinant human ectodomain αIIbβ3, activated (high-affinity ligand binding conformation) (human, UniProt P08514 32-993; P05106 27-718, carboxyl groups coupled to the DETA silane layer by EDC/sulfo-NHS); assay: flow cytometry dose-response of Alexa488-fibrinogen on activated αIIbβ3 beads, DETA signal subtracted, one site specific binding fit
T1 construct: Also used here for the ELISA plate coated in a buffer with the same cations
Method: 3 μL of 1×10⁸ beads/mL were mixed with the desired concentration of fluorescently labelled antibody or ligand to a final volume of 100 μL in PBS and incubated for 1 h. Following incubation, the samples were diluted to a final volume of 1 mL and flow cytometrically analyzed. Samples that were compared with one another were run on the same instrument under the same instrumental conditions (signal gain, flow rate etc.). Any differences in absolute mean fluorescence intensity (MFI) value between different experiments was due to variance between the two.
αIIbβ3 Coupled Bead Flow Cytometry Analysis. […] Ferromagnetic silica particles at each stage of the coating fabrication process were analyzed with flow cytometry for binding to (FIGS. 2A and 2B) PSI E1, and (FIG. 2C to 2F) fibrinogen. […] After the activation step, the beads were analyzed with flow cytometry for binding of Alexa488™ labelled fibrinogen (native αIIbβ3 ligand) and PAC-1 (an antibody specific for the active upright conformation of αIIbβ3) (See Table 2, FIGS. 2G to 2I). […] All analyses conducted as n≥3, data presented as mean±SD, analyzed with a two-tailed t-test, ns=not significant *P<0.05, **P<0.01, ***P<0.001 and ****P<0.0001.

[2] = target: T1, Recombinant human ectodomain αIIbβ3, …; assay: sandwich ELISA, αIIbβ3 coated on a 96-well plate in a buffer with Mg2+, Mn2+ and Ca2+ (anti-fibrinogen mouse IgG, anti-mouse IgG-HRP)
Method: Fibrinogen ELISA Assay. To ensure similar immobilization levels of recombinant human ectodomain aIIbβ3 between the ELISA plate and integrin coupled magnetic beads, the wells of a 96-well micro plate (Nunc MaxiSorp) were incubated with the same aIIbβ3 concentration per surface area as during the preparation of the magnetic beads, 6.6×10⁴ μg·mL⁻¹·c⁻². Each well was coated with aIIbβ3 or control proteins (BSA and β3−/− platelet lysate) by incubation of 6 μg/μL protein in binding buffer (TRIS buffered saline with 0.05% TWEEN-20 and 1 mM each of MgCl₂, MnCl₂ and CaCl₂)) at 4° C. overnight. Incubation of 3% skim milk (ED Millipore) and 2% TWEEN-20 for 1 hour at 37° C. was used for blocking. The concentration of aIIbβ3 per surface area of bead used when coating SAM coated beads is 6.6×10⁴ μg·mL⁻¹·cm⁻², therefore the wells of 96 well plates used were coated with the same density EDC/NHS quenching achieved by increase pH to 8.6. Bead concentration for synthesis: 6×10⁹ beads·mL⁻¹; Integrin-bead reaction concentration=250 μg·mL⁻¹; Integrin Used=6.6×10⁴ μg·mL⁻¹·cm⁻²; Well Surface Area (50 μL)=0.93 cm²; Concentration/wee for ELISA=6×10⁴ μg·mL⁻¹ (6 μL/well in 50 μL total volume); Stock [αIIbβ3]=5×10⁵ μg·mL⁻¹.
Fibrinogen binding. […] The OPD peroxidase reaction was stopped after 1 hour with 2 M H₂SO₄ and the absorbance was read at 492 nm. […]

[3] = target: T1, Recombinant human ectodomain αIIbβ3, …; assay: flow cytometry sandwich assay on αIIbβ3 coupled beads (anti-fibrinogen mouse IgG, FITC-labelled detection antibody), apparent Kd

T1 sequence (P08514 other isoform, or with tags, fused parts or gaps limits assumed, chain 1 of 2): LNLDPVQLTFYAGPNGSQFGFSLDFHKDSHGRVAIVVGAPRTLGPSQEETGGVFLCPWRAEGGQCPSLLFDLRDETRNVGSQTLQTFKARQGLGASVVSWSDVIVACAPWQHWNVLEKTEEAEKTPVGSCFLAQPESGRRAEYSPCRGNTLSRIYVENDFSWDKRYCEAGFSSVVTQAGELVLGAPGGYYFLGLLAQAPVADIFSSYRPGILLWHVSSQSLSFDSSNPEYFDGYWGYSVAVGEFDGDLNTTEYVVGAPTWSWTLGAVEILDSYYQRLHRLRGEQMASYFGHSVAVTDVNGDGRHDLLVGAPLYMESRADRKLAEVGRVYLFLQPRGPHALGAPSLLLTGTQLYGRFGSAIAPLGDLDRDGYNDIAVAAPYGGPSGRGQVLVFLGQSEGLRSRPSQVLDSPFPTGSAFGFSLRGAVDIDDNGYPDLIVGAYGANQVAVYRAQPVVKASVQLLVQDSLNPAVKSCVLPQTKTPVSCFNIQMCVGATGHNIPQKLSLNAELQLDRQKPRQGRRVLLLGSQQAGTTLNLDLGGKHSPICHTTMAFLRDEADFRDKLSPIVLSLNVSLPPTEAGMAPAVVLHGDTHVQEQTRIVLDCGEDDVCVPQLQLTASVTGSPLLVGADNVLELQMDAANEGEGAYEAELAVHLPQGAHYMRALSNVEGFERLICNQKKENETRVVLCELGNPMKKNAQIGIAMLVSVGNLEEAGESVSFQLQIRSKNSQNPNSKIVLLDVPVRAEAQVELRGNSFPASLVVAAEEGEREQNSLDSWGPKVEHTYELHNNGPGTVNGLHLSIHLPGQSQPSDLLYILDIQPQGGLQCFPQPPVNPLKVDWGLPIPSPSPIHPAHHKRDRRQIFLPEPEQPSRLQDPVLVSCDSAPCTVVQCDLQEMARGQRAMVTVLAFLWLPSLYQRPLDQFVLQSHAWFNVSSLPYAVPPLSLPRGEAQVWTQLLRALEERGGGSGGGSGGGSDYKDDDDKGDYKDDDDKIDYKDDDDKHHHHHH
T1 sequence (P05106 other isoform, or with tags, fused parts or gaps limits assumed, chain 2 of 2): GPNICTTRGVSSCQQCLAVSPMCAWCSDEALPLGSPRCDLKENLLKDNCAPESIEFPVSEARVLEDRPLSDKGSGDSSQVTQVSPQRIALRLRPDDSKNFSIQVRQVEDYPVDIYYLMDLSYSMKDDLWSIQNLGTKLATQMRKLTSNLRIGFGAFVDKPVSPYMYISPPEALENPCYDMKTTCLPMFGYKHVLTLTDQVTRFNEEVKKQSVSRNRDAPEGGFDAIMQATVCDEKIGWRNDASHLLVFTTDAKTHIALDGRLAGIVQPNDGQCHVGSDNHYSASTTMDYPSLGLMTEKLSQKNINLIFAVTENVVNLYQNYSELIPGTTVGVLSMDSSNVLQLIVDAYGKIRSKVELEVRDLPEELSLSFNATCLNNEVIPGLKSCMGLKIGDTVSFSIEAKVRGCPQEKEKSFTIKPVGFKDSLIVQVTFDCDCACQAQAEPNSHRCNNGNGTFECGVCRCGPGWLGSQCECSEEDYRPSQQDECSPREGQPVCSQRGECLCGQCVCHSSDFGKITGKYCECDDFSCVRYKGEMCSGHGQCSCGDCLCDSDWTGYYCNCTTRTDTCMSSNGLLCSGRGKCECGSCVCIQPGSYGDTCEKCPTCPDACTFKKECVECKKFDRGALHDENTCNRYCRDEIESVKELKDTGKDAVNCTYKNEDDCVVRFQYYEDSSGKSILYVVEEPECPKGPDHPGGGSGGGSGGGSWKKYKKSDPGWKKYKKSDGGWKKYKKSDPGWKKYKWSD

Kd [1]: 78 nM | Kd [2]: 2200 nM | Kd [3]: 210 nM
B1: Fibrinogen (ligand)
alpha: ADSGEGDFLAEGGGVRGPRVVERHQSACKDSDWPFCSDEDWNYKCPSGCRMKGLIDEVNQDFTNRINKLKNSLFEYQKNNKDSHSLTTNIMEILRGDFSSANNRDNTYNRVSEDLRSRIEVLKRKVIEKVQHIQLLQKNVRAQLVDMKRLEVDIDIKIRSCRGSCSRALAREVDLKDYEDQQKQLEQVIAKDLLPSRDRQHLPLIKMKPVPDLVPGNFKSQLQKVPPEWKALTDMPQMRMELERPGGNEITRGGSTSYGTGSETESPRNPSSAGSWNSGSSGPGSTGNRNPGSSGTGGTATWKPGSSGPGSTGSWNSGSSGTGSTGNQNPGSPRPGSTGTWNPGSSERGSAGHWTSESSVSGSTGQWHSESGSFRPDSPGSGNARPNNPDWGTFEEVSGNVSPGTRREYHTEKLVTSKGDKELRTGKEKVTSGSTTTTRRSCSKTVTKTVIGPDGHKEVTKEVVTSEDGSDCPEAMDLGTLSGIGTLDGFRHRHPDEAAFFDTASTGKTFPGFFSPMLGEFVSETESRGSESGIFTNTKESSSHHPGIAEFPSRGKSSSYSKQFTSSTSYNRGDSTFESKSYKMADEAGSEADHEGTHSTKRGHAKSRPVRGIHTSPLGKPSLSP
beta: QGVNDNEEGFFSARGHRPLDKKREEAPSLRPAPPPISGGGYRARPAKAAATQKKVERKAPDAGGCLHADPDLGVLCPTGCQLQEALLQQERPIRNSVDELNNNVEAVSQTSSSSFQYMYLLKDLWQKRQKQVKDNENVVNEYSSELEKHQLYIDETVNSNIPTNLRVLRSILENLRSKIQKLESDVSAQMEYCRTPCTVSCNIPVVSGKECEEIIRKGGETSEMYLIQPDSSVKPYRVYCDMNTENGGWTVIQNRQDGSVDFGRKWDPYKQGFGNVATNTDGKNYCGLPGEYWLGNDKISQLTRMGPTELLIEMEDWKGDKVKAHYGGFTVQNEANKYQISVNKYRGTAGNALMDGASQLMGENRTMTIHNGMFFSTYDRDNDGWLTSDPRKQCSKEDGGGWWYNRCHAANPNGRYYWGGQYTWDMAKHGTDDGVVWMNWKGSWYSMRKMSMKIRPFFPQQ
gamma: YVATRDNCCILDERFGSYCPTTCGIADFLSTYQTKVDKDLQSLEDILHQVENKTSEVKQLIKAIQLTYNPDESSKPNMIDAATLKSRKMLEEIMKYEASILTHDSSIRYLQEIYNSNNQKIVNLKEKVAQLEAQCQEPCKDTVQIHDITGKDCQDIANKGAKQSGLYFIKPLKANQQFLVYCEIDGSGNGWTVFQKRLDGSVDFKKNWIQYKEGFGHLSPTGTTEFWLGNEKIHLISTQSAIPYALRVELEDWNGRTSTADYAMFKVGPEADKYRLTYAYFAGGDAGDAFDGFDFGDDPSDKFFTSHNGMQFSTWDNDNDKFEGNCAEQDGSGWWMNKCHAGHLNGVYYQGGTYSKASTPNGYDNGIIWATWKTRWYSMKKTTMKIIPFNRLTIGEGQQHHLGGAKQAGDV
modifications: Alexa 488 dye on lysines (positions not stated) in the results at the 2nd table and paragraph 103; unlabelled in the sandwich assay of paragraph 112. The native protein is a disulfide-linked dimer of the three chains; each chain is given once.
notes: It calls the protein 'bivalent fibrinogen'; also called Fg; Alexa488 labelled fibrinogen
